# Reference: US5919790A, “Hydroxamate inhibitors of interleukin-1β converting enzyme” (Warner-Lambert Company, priority 1997, dated 1999)
# Substrate: CC(=O)N[C@@H](Cc1ccc(O)cc1)C(=O)N[C@H](C(=O)N[C@@H](C)C(=O)N[C@@H](CC(=O)O)C(=O)Nc1ccc2c(C)cc(=O)oc2c1)C(C)C
# Test: ICE inhibition, Ki, fluorescence assay with Ac-Tyr-Val-Ala-Asp-AMC
# Type: biochemical
# Conditions: other: substrate of ICE, HGDE buffer
# Protocol: Substrate hydrolysis is monitored for 300 seconds by observing the fluorescence of released AMC using excitation at 380 nm and emission at 460 nm. Mean rates of substrate hydrolysis are evaluated by linear-regression analysis of the fluorescence vs time traces. […] ICE Colorimetric Dose-Response (IC50) Assay
protein,measurement,value
ICE (interleukin-1β converting enzyme) (Homo sapiens) (protein) chain 1: NPAMPTSSGSEGNVKLCSLEEAQRIWKQKSAEIYPIMDKSSRTRLALIICNEEFDSIPRRTGAEVDITGMTMLLQNLGYSVDVKKNLTASDMTTELEAFAHRPEHKTSDSTFLVFMSHGIREGICGKKHSEQVPDILQLNAIFNMLNTKNCPSLKDKPKVIIIQACRGDSPGVVWFKD chain 2: AIKKAHIEKDFIAFCSSTPDNVSWRHPTMGSVFIGRLIEHMQEYACSCDVEEIFRKVRFSFEQPDGRAQMPTTERVTLTRCFYLFPGH,Km,15 µM
